We go through 1 molecule from patent publication US20200199533A1 (KING ABDULLAH UNIVERSITY OF SCIENCE AND TECHNOLOGY, published 2020).

Assay [1] deals with T1, CD34, native glycoprotein from human HSPCs (KG1a, CD34^pos-BM, CD34^pos-UCB, CD34^pos-AML) (human, UniProt P28906 32-385, native glycosylation (about 120-130 kDa form); sialylated O-glycans and tyrosine sulfation are shown to matter for selectin binding).
T1 construct: mature; also called E-selL CD34
T1 sequence (looked up): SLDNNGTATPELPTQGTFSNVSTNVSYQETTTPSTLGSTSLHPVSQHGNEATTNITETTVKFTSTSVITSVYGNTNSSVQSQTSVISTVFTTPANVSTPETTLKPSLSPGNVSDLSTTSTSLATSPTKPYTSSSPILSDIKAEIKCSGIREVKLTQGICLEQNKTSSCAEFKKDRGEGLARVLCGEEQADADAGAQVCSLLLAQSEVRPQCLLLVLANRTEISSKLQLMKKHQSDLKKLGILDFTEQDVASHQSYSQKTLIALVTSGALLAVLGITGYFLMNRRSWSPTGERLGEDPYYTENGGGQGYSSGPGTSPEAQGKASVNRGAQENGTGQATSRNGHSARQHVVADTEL
Description: SPR; CD34 captured from KG1a lysate on 563-mAb, E-Ig injected (3.9-2000 nM), 150 mM NaCl; steady-state model; 2nd experiment.

Assay [2] addresses T2, CD43, native glycoprotein from KG1a cells (human, UniProt P16150 20-400, native glycosylation).
T2 construct: mature
T2 sequence (looked up): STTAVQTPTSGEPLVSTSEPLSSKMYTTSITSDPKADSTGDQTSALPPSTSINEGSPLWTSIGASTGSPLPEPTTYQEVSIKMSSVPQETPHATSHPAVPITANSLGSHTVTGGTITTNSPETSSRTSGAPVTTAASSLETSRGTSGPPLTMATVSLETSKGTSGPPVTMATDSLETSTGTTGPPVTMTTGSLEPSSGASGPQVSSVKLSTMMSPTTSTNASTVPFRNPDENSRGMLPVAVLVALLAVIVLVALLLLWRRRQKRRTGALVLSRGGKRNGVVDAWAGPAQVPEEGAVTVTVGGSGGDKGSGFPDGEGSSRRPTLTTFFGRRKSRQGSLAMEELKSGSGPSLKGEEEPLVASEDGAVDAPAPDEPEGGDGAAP
Description: SPR; CD43 captured from KG1a lysate on polyclonal CD43 Ab, E-Ig injected (3.9-2000 nM), 150 mM NaCl; steady-state model; 1st experiment.

B1: recombinant E-selectin human immunoglobulin chimeric protein (Fc fusion)
chain: WSYNTSTEAMTYDEASAYCQQRYTHLVAIQNKEEIEYLNSILSYSPSYYWIGIRKVNNVWVWVGTQKPLTEEAKNWAPGEPNNRQKDEDCVEIYIKREKDVGMWNDERCSKKKLALCYTAACTNTSCSGHGECVETINNYTCKCDPGFSGLKCEQIVNCTALESPEHGSLVCSHPLGNFSYNSSCSISCDRGYLPSSMETMQCMSSGEWSAPIPACNVVECDAVTNPANGFVECFQNPGSFPWNTTCTFDCEEGFELMGAQSLQCTSSGNWDNEKPTCKAVTCRAVRQPQNGSVRCSHSPAGEFTFKSSCNFTCEEGFMLQGPAQVECTTQGQWTQQIPVCEAFQCTALSNPERGYMNCLPSASGSFRYGSSCEFSCEQGFVLKGSKRLQCGPTGEWDNEKPTCEAVRCDAVHQPPKGLVRCAHSPIGEFTYKSSCAFSCEEGFELHGSTQLECTSQGQWTEEVPSCQVVKCSSLAVPGKINMSCSGEPVFGTVCKFACPEGWTLNGSAARTCGATGHWSGLLPTCEAPTESNIP
For the molecule B1, the Kd in assay [1] is 268 nM; in assay [2], 509 nM.
